Laboratory results taken from the supplement of paper PMC10201428.
± gives the standard deviation of the averaged measurements.

B1: library; a variant is named by its letters at N, in order (parent)
chain: AATGTTGTTGATGCAACCATAAAGTGATATTTAATAATTATTTATAATCAGCAACTTAACCACAAAACAACCATATATTGATATNTCACAAAACAACCATAANTTGATATTTTTGTGAATCGAGTATTTCAGCAAAACTACTGCAGTAAGAA

What was measured:
[1] = variants of: B1; assay: relative integration efficiency (T-LR orientation) vs wild-type transposon end (log2 (normalized fold change)); transposon end mutated: left end; higher = more efficient transposition; details: with VchCAST RNA-guided transposition machinery (E. coli BL21(DE3) host, lacZ target)
How it was run: (§1)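 Barcode abundances in input plasmids and in genomic integration junctions were obtained by PCR amplification and Illumina sequencing. These came from E. coli BL21(DE3) co-transformed with a T7-driven effector plasmid and a pUC57 donor carrying 1549 left-end or 1849 right-end transposon variants, then plated with 0.1 mM IPTG at 37°C for 18 h. Relative integration efficiency is the output/input fold change, normalised to reference barcodes and log-transformed.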

[2] = variants of: B1; assay: relative integration efficiency (T-RL orientation) vs wild-type transposon end (log2 (normalized fold change)); transposon end mutated: left end; higher = more efficient transposition; details: with VchCAST RNA-guided transposition machinery (E. coli BL21(DE3) host, lacZ target)
How it was run: as §1

Variant	relative integration efficiency (log2) [1]	relative integration efficiency (log2) [2]
CG T35G A36C	-0.467 ± 0.11	-0.318 ± 0.071
CG T38A T42A T45A A47T C49A G51T C52T A54T C55T T56A T57A A59T	-2.39 ± 1.1	-2.37 ± 0.87
CG T57A A58T A59T C60G	1.28 ± 0.42	0.281 ± 1
CG T74A A75T	-0.113 ± 0.66	-0.22 ± 0.27
CG T41A A44G A46T A50C A53T A54C C55A T56C T57A A59T C60T A62C	-2.59 ± 1.4	-3.65 ± 0.63
CG T76A A77T	-0.19 ± 0.3	0.117 ± 0.012
CG T74G A75C	-2.15 ± 0.86	-2.21 ± 0.94
CG T39A	0.147 ± 0.58	0.0624 ± 0.071
CG T39G	0.304 ± 0.45	0.00997 ± 0.055
CG T39C	0.161 ± 0.47	0.0645 ± 0.011
CG T38A T39A	0.516 ± 0.23	0.474 ± 0.18
CG T45G A46C	0.396 ± 0.26	-0.219 ± 0.2
CG T32A A33T T86A C87G T112A T113A	-0.463 ± 0.11	-0.48 ± 0.21
CG T48A C49G	0.449 ± 0.71	0.353 ± 0.18
CG T48A C49A A50T C52T A53G C55G T56C T57G A59G C60T C61A A66C A67C	0.607 ± 0.81	-5.05 ± 1.9
CG T43G A44C T45G A46C	0.536 ± 0.48	-0.504 ± 0.27
CG T32A T86A T112A	0.255 ± 0.42	-0.0963 ± 0.053
CG T31G	-0.35 ± 0.1	-0.221 ± 0.21
CG T31C	0.331 ± 0.47	-0.0756 ± 0.17
GG T31A T32A A33T T86A C87G T111A T112A T113A	-0.524 ± 0.35	-0.495 ± 0.72
CG T56A T57A A58T A59T	-1.3 ± 0.89	-1.52 ± 0.76
AG T31G T111G	-0.732 ± 0.38	-0.99 ± 0.44
CG T42A T43A A44T T45A	0.262 ± 0.049	0.271 ± 0.16
CG T48G C49A A50C G51T C52A A53C A54C C55A T56G T57G A58C	-3.04 ± 1.4	-2.79 ± 0.63

Variant	relative integration efficiency (log2) [1]	relative integration efficiency (log2) [2]
CG T43G A44C	0.129 ± 0.046	-0.0854 ± 0.05
TG T76A A77G C87T	0.266 ± 0.15	-0.247 ± 0.35
CG T41G T42G	1.22 ± 0.23	0.0624 ± 0.23
CG T43A A44T	0.162 ± 0.35	-0.0354 ± 0.012
CG T57C	-0.422 ± 0.61	-0.546 ± 0.31
CG T57A	-0.137 ± 0.84	0.139 ± 0.15
CG T57G	-1.94 ± 0.91	-1.33 ± 0.56
CG T42G	0.0763 ± 0.34	-0.115 ± 0.2
CG T42C	0.252 ± 0.45	0.37 ± 0.039
CG T42A	0.162 ± 0.27	0.471 ± 0.051
CG T43G	-0.00931 ± 0.27	-0.28 ± 0.043
CG T43C	-0.00723 ± 0.047	-0.241 ± 0.11
CG T43A	0.341 ± 0.042	0.0102 ± 0.024
CG T48A	0.212 ± 0.68	0.162 ± 0.22
CG T48G	0.0472 ± 0.93	0.24 ± 0.2
CG T48C	-0.224 ± 0.18	-0.219 ± 0.15
CG T39G A40C T41G T43A A44C A47G C49T G51A A53T C55G A58C A59G C60A	-5.96 ± 2.7	-4.12 ± 1.1
CG T42G T43G	0.178 ± 0.27	-0.123 ± 0.14
CG T57G A58C A59C C60A	-1.48 ± 0.099	-0.817 ± 0.47
CG T31A T32A A33T A34T	0.0738 ± 0.43	-0.0923 ± 0.16
CG T41A	-0.651 ± 0.73	0.0865 ± 0.047
CG T41C	1.29 ± 0.16	0.304 ± 0.26
CG T41G	0.12 ± 0.36	-0.128 ± 0.018
CG T45A A46T	-0.208 ± 0.19	0.192 ± 0.024

Variant	relative integration efficiency (log2) [1]	relative integration efficiency (log2) [2]
CG T42A T43A	0.176 ± 0.54	-0.0273 ± 0.049
CG T32A A33T A34T T35A	0.141 ± 0.33	-0.0669 ± 0.14
CG T74A A75T T76A A77T	-0.829 ± 0.96	-0.759 ± 0.32
CG T43G A44C A46G T48A C49G A50C C52A A53G T56A T57C A58C	-2.81 ± 2.2	-2.55 ± 1
CG T32G A33C	0.439 ± 0.1	0.352 ± 0.14
CG T41A T42A T43A A44T	0.249 ± 0.14	0.195 ± 0.17
CG T38G T39G A40C T41G	0.212 ± 0.16	-0.193 ± 0.16
CG T48G C49A	-0.72 ± 0.49	-0.681 ± 0.47
CG T43A A44T T45A A46T	-1.06 ± 1.4	0.138 ± 0.031
CG T32G A33C A34C T35G	0.074 ± 0.25	-0.364 ± 0.079
CG T41G T42G T43G A44C	0.146 ± 0.074	-0.195 ± 0.099
CG T39A A40T	0.255 ± 0.22	0.244 ± 0.039
CG T32A A33T	0.105 ± 0.075	-0.145 ± 0.16
CG T39G A40C	-0.0204 ± 0.26	-0.535 ± 0.23
CG T45G	-0.109 ± 0.19	-0.0406 ± 0.053
CG T45A	0.403 ± 0.63	-0.0115 ± 0.062
CG T45C	-0.0724 ± 0.056	-0.326 ± 0.093
CG T76A	0.179 ± 0.069	0.0494 ± 0.062
CG T76C	-1.37 ± 0.51	-1.06 ± 0.46
CG T31G T32G A33C A34C	-0.805 ± 0.2	-0.592 ± 0.32
CG T45C T48C G51T C52A C55G T57G A59T C60A C61T A62T C63T A66C A67T	-0.402 ± 1	-5.71 ± 1.3
CG T39G A40C T41G T42G	0.3517 ± 0.00068	0.179 ± 0.11
CG T35A A36T A37T T38A	0.322 ± 0.34	0.354 ± 0.019
CG T38C	0.236 ± 0.068	-0.0081 ± 0.1

Variant	relative integration efficiency (log2) [1]	relative integration efficiency (log2) [2]
CG T38G	0.138 ± 0.0017	-0.123 ± 0.065
CG T38A	0.0433 ± 0.41	-0.123 ± 0.054
CG T32G T86G T112G	-0.809 ± 0.9	-0.686 ± 0.19
CG T38G T39G	0.139 ± 0.043	-0.161 ± 0.039
CG T39A A40T T41A T42A	0.453 ± 0.17	0.475 ± 0.019
CG T35A A36T	0.24 ± 0.31	0.1527 ± 0.00087
CG T35G	0.136 ± 0.33	0.163 ± 0.11
CG T35C	-0.112 ± 0.24	-0.0902 ± 0.18
CG T35A	0.179 ± 0.22	0.0694 ± 0.048
CG T35G A36C A37C T38G	0.209 ± 0.74	0.203 ± 0.092
CG T57A A58T	-3.38 ± 2.1	-0.792 ± 0.44
CG T32G A33C T86G C87A T112G T113G	-0.849 ± 0.54	-0.843 ± 0.24
CG T56G T57G	-1.54 ± 0.34	-1.59 ± 0.66
CG T45A A46T A47T T48A	0.244 ± 0.78	0.0806 ± 0.061
CG T41A T42A	0.775 ± 0.0053	0.864 ± 0.047
CG T57G A58C	-1.37 ± 0.37	-1.45 ± 0.67
CG T32A A77C T86G	-0.351 ± 0.47	-0.197 ± 0.12
CG T41A T42A A44G A46G T48G A50G G51A C52G A53T C55A T56C T57A A59C	0.615 ± 1	-4.14 ± 1.1
TG T76A T78G C87A	0.336 ± 0.26	0.505 ± 0.035
CG T56A T57A	-0.409 ± 0.79	-0.165 ± 0.21
CG T45G A46C A47C T48G	-0.0893 ± 0.7	-0.487 ± 0.43
CG T31A T32A	-0.442 ± 0.33	-0.131 ± 0.028
GG T31A T111A	-0.483 ± 0.67	-0.581 ± 0.56
CG T74A	-0.12 ± 0.44	-0.331 ± 0.2

Variant	relative integration efficiency (log2) [1]	relative integration efficiency (log2) [2]
CG T74G	-1.2 ± 1.2	-1.35 ± 0.79
CG T74C	-0.976 ± 1.2	-1.33 ± 0.63
AG T31G T32G A33C T86G C87A T111G T112G T113G	-1.26 ± 0.48	-1.07 ± 0.49
CG T48G C49A A50C G51T	-3.52 ± 2.9	-1.55 ± 0.54
CG T39C A40T T41G T43G A46T A47G C49T G51T A54C C55A	-4.29 ± 1.2	-2.86 ± 0.84
CG T48A C49G A50T G51C C52G A53T A54T C55G T56A T57A A58T	-2.96 ± 2.6	-3.43 ± 1.1
CG T42G T43G A44C T45G	0.391 ± 0.16	-0.108 ± 0.12
TG T76A T78A T84A C87A	0.281 ± 0.38	-0.028 ± 0.21
CG T32A	0.415 ± 0.98	0.178 ± 0.032
CG T32G	-0.347 ± 0.098	-0.146 ± 0.14
CG T32C	0.089 ± 0.39	-0.0923 ± 0.12
CG T48A C49G A50T G51C	-2.64 ± 0.41	-2.28 ± 0.62
CG T31G T32G	-0.16 ± 0.58	-0.225 ± 0.34
CG T56G T57G A58C A59C	-2.31 ± 0.94	-1.82 ± 0.62
CG T56G	-0.0431 ± 0.26	-0.112 ± 0.12
CG T56C	-0.129 ± 0.16	-0.2 ± 0.061
CG T56A	0.188 ± 0.11	-0.167 ± 0.0046
CG T74G A75C T76G A77C	-2.54 ± 1.3	-1.95 ± 0.99
CG T38A T39A A40T T41A	-0.9 ± 1.3	0.168 ± 0.1
CG T76A A77T T78A T79A	-0.702 ± 1.2	-0.611 ± 0.38
